The labels stand for the following.
B1: ID1-DBL2Xb (3D7, Baculo) (other)
chain: LSFILNSSDANNPSEKIQKNNDEVCNCNESGIASVEQEQISDPSSNKTCITHSSIKANKKKVCKHVKLGVRENDKDLRVCVIEHTSLSGVENCCCQDFLRILQENCSDNKSGSSSNGSCNNKNQEACEKNLEKVLASLTNCYKCDKCKSEQSKKNNKNWIWKKSSGKEGGLQKEYANTIGLPPRTQSLCLVVCLDEKGKKTQELKNIRTNSELLKEWIIAAFHEGKNLKPSHEKKNDDNGKKLCKALEYSFADYGDLIKGTSIWDNEYTKDLELNLQKIFGKLFRKYIKKNNTAEQDTSYSSLDELRESWWNTNKKYIWLAMKHGAGMNSTTCCGDGSVTGSGSSCDDIPTIDLIPQYLRFLQEWVEHFCKQRQEKVKPVIENCKSCKESGGTCNGECKTECKNKCEVYKKFIEDCKGGDGTAGSSWVKRWDQIYKRYSKYIEDAKRNRKAGTKNCGPSSTTNAAENKCVQSDIDSFFKHLIDIGLTTPSSYLSIVLDDNICGADKAPWTTYTTYTTTEKCNKETDKSKLQQCNTAVVVNVPSPLGNTPHGYKY
notes: The start at 16 is derived by me from the forward primer (LSFILN); not shown: V5 and His tag at the C-terminal (modified pAcGP67-A)
B2: DBL1-ID2a (FCR3, Baculo) (other)
chain: HSDSGKYDPCEKKLPPYDDNDQWKCQQNSSDGSGKPENICVPPRRERLCTYNLENLKFDKIRDNNAFLADVLLTARNEGEKIVQNHPDTNSSNVCNALERSFADLADIIRGTDQWKGTNSNLEKNLKQMFAKIRENDKVLQDKYPKDQKYTKLREAWWNANRQKVWEVITCGARSNDLLIKRGWRTSGKSDRKKNFELCRKCGHYEKEVPTKLDYVPQFLRWLTEWIEDFYREKQNLIDDMERHREECTREDHKSKEGTSYCSTCKDKCKKYCECVKKWKTEWENQENKYKDLYEQNKNKTSQKNTSRYDDYVKDFFEKLEANYSSLENYIKGDPYFAEYATKLSFILNPSDANNPSGETANHNDEACNCNESGISSVGQAQTSGPSSNKTCITHSSIKTNKKKECKDVKLGVRENDKDLKICVIEDTSLSGVDNCCCQDLLGILQENCSDNKRGSSSNDSCDNKNQDECQKKLEKVFASLTNGYKCDKCKSGTSRSKKKWIWKKSSGNEEGLQEEYANTIGLPPRTQSLYLGNLPKLENVCEDVKDINFDTKEKFLAGCLIVSFHEGKNLKKRYPQNKNSGNKENLCKALEYSFADYGDLIKGTSIWDNEYTKDLELNLQNNFGKLFGKYIKKNNTAEQDTSYSSLDELRESWWNTNKKYIWTAMKHGAEMNITTCNADGSVTGSGSSCDDIPTIDLIPQYLRFLQEWVENFCEQRQAKVKDVITNCKSCKESGNKCKTECKTKCKDECEKYKKFIEACGTAGGGIGTAGSPWSKRWDQIYKRYSKHIEDAKRNRKAGTKNCGTSSTTNAAASTDENKCVQSDIDSFFKHLIDIGLTTPSSYLSNVLDDNICGADKAPWTTYTTYTTTEKCNKERDKSKSQSSDTLVVVNVPSPLGNTPYRYKYACQCKIPTNEETCDDRKEYMNQWSCGSARTMKRGYKNDNYELCKYNGVDVKPTTVRSNSSKLD
notes: also called DBL1X-ID2a; wild-type protein; not shown: V5 and His tag at the C-terminal (modified pAcGP67-A)
B3: DBL1-ID2a (FCR3, E. coli) (other)
chain: B2 chain
notes: Made in E. coli
B4: DBL1X-DBL2Xb (FCR3, E. coli, as the column stands) (other)
chain: HSDSGKYDPCEKKLPPYDDNDQWKCQQNSSDGSGKPENICVPPRRERLCTYNLENLKFDKIRDNNAFLADVLLTARNEGEKIVQNHPDTNSSNVCNALERSFADLADIIRGTDQWKGTNSNLEKNLKQMFAKIRENDKVLQDKYPKDQKYTKLREAWWNANRQKVWEVITCGARSNDLLIKRGWRTSGKSDRKKNFELCRKCGHYEKEVPTKLDYVPQFLRWLTEWIEDFYREKQNLIDDMERHREECTREDHKSKEGTSYCSTCKDKCKKYCECVKKWKTEWENQENKYKDLYEQNKNKTSQKNTSRYDDYVKDFFEKLEANYSSLENYIKGDPYFAEYATKLSFILNPSDANNPSGETANHNDEACNCNESGISSVGQAQTSGPSSNKTCITHSSIKTNKKKECKDVKLGVRENDKDLKICVIEDTSLSGVDNCCCQDLLGILQENCSDNKRGSSSNDSCDNKNQDECQKKLEKVFASLTNGYKCDKCKSGTSRSKKKWIWKKSSGNEEGLQEEYANTIGLPPRTQSLYLGNLPKLENVCEDVKDINFDTKEKFLAGCLIVSFHEGKNLKKRYPQNKNSGNKENLCKALEYSFADYGDLIKGTSIWDNEYTKDLELNLQNNFGKLFGKYIKKNNTAEQDTSYSSLDELRESWWNTNKKYIWTAMKHGAEMNITTCNADGSVTGSGSSCDDIPTIDLIPQYLRFLQEWVENFCEQRQAKVKDVITNCKSCKESGNKCKTECKTKCKDECEKYKKFIEACGTAGGGIGTAGSPWSKRWDQIYKRYSKHIEDAKRNRKAGTKNCGTSSTTNAAASTDENKCVQSDIDSFFKHLIDIGLTTPSSYLSNVLDDNICGADKAPWTTYTTYTTTEKCNKERDKSKSQSSDTLVVVNVPSPLGNTPYRYKY
notes: The value stands in column 4 (E. coli, under FCR3); The column may be shifted, in which case the protein could be the 3D7 baculovirus one; Range derived by me from the FCR3 primers (HSDSGK ... PYRYKY)
B5: ID1-ID2a (FCR3, Baculo) (other)
chain: NYIKGDPYFAEYATKLSFILNPSDANNPSGETANHNDEACNCNESGISSVGQAQTSGPSSNKTCITHSSIKTNKKKECKDVKLGVRENDKDLKICVIEDTSLSGVDNCCCQDLLGILQENCSDNKRGSSSNDSCDNKNQDECQKKLEKVFASLTNGYKCDKCKSGTSRSKKKWIWKKSSGNEEGLQEEYANTIGLPPRTQSLYLGNLPKLENVCEDVKDINFDTKEKFLAGCLIVSFHEGKNLKKRYPQNKNSGNKENLCKALEYSFADYGDLIKGTSIWDNEYTKDLELNLQNNFGKLFGKYIKKNNTAEQDTSYSSLDELRESWWNTNKKYIWTAMKHGAEMNITTCNADGSVTGSGSSCDDIPTIDLIPQYLRFLQEWVENFCEQRQAKVKDVITNCKSCKESGNKCKTECKTKCKDECEKYKKFIEACGTAGGGIGTAGSPWSKRWDQIYKRYSKHIEDAKRNRKAGTKNCGTSSTTNAAASTDENKCVQSDIDSFFKHLIDIGLTTPSSYLSNVLDDNICGADKAPWTTYTTYTTTEKCNKERDKSKSQSSDTLVVVNVPSPLGNTPYRYKYACQCKIPTNEETCDDRKEYMNQWSCGSARTMKRGYKNDNYELCKYNGVDVKPTTVRSNSSKLD
notes: The primers (NYIKGD ... NSSKLD) match its two ends; not shown: V5 and His tag at the C-terminal (modified pAcGP67-A)
B6: ID1-ID2a (FCR3, E. coli) (other)
chain: B5 chain
notes: Made in E. coli
B7: DBL1-ID2a (3D7, Baculo) (other)
chain: HSDSGTNDPCDRIPPPYGDNDQWKCAIILSKVSEKPENVFVPPRRQRMCINNLEKLNVDKIRDKHAFLADVLLTARNEGERIVQNHPDTNSSNVCNALERSFADIADIIRGTDLWKGTNSNLEQNLKQMFAKIRENDKVLQDKYPKDQNYRKLREDWWNANRQKVWEVITCGARSNDLLIKRGWRTSGKSNGDNKLELCRKCGHYEEKVPTKLDYVPQFLRWLTEWIEDFYREKQNLIDDMERHREECTSEDHKSKEGTSYCSTCKDKCKKYCECVKKWKSEWENQKNKYTELYQQNKNETSQKNTSRYDDYVKDFFKKLEANYSSLENYIKGDPYFAEYATKLSFILNSSDANNPSEKIQKNNDEVCNCNESGIASVEQEQISDPSSNKTCITHSSIKANKKKVCKHVKLGVRENDKDLRVCVIEHTSLSGVENCCCQDFLRILQENCSDNKSGSSSNGSCNNKNQEACEKNLEKVLASLTNCYKCDKCKSEQSKKNNKNWIWKKSSGKEGGLQKEYANTIGLPPRTQSLCLVVCLDEKGKKTQELKNIRTNSELLKEWIIAAFHEGKNLKPSHEKKNDDNGKKLCKALEYSFADYGDLIKGTSIWDNEYTKDLELNLQKIFGKLFRKYIKKNNTAEQDTSYSSLDELRESWWNTNKKYIWLAMKHGAGMNSTTCCGDGSVTGSGSSCDDIPTIDLIPQYLRFLQEWVEHFCKQRQEKVKPVIENCKSCKESGGTCNGECKTECKNKCEVYKKFIEDCKGGDGTAGSSWVKRWDQIYKRYSKYIEDAKRNRKAGTKNCGPSSTTNAAENKCVQSDIDSFFKHLIDIGLTTPSSYLSIVLDDNICGADKAPWTTYTTYTTTEKCNKETDKSKLQQCNTAVVVNVPSPLGNTPHGYKYACQCKIPTNEETCDDRKEYMNQWSCGSARTMKRGYKNDNYELCKYNGVDVKPTTVRSNSSKLD
notes: also called DBL1X-ID2a; not shown: V5 and His tag at the C-terminal (modified pAcGP67-A)
B8: ID1-ID2a (3D7, Baculo) (other)
chain: LSFILNSSDANNPSEKIQKNNDEVCNCNESGIASVEQEQISDPSSNKTCITHSSIKANKKKVCKHVKLGVRENDKDLRVCVIEHTSLSGVENCCCQDFLRILQENCSDNKSGSSSNGSCNNKNQEACEKNLEKVLASLTNCYKCDKCKSEQSKKNNKNWIWKKSSGKEGGLQKEYANTIGLPPRTQSLCLVVCLDEKGKKTQELKNIRTNSELLKEWIIAAFHEGKNLKPSHEKKNDDNGKKLCKALEYSFADYGDLIKGTSIWDNEYTKDLELNLQKIFGKLFRKYIKKNNTAEQDTSYSSLDELRESWWNTNKKYIWLAMKHGAGMNSTTCCGDGSVTGSGSSCDDIPTIDLIPQYLRFLQEWVEHFCKQRQEKVKPVIENCKSCKESGGTCNGECKTECKNKCEVYKKFIEDCKGGDGTAGSSWVKRWDQIYKRYSKYIEDAKRNRKAGTKNCGPSSTTNAAENKCVQSDIDSFFKHLIDIGLTTPSSYLSIVLDDNICGADKAPWTTYTTYTTTEKCNKETDKSKLQQCNTAVVVNVPSPLGNTPHGYKYACQCKIPTNEETCDDRKEYMNQWSCGSARTMKRGYKNDNYELCKYNGVDVKPTTVRSNSSKLD
notes: not shown: V5 and His tag at the C-terminal (modified pAcGP67-A)

T1 sequence (P21793 31-360): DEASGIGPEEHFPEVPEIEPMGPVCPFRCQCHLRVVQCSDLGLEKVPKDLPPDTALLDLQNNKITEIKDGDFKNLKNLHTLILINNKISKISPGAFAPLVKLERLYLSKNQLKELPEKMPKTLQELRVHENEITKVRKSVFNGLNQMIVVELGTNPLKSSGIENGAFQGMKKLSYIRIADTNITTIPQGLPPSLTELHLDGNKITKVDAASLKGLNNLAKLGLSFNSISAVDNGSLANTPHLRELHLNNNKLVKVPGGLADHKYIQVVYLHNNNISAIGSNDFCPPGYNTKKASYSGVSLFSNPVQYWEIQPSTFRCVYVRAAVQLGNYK

This test has as its target T1, CSPG (bovine) (D8428, Sigma) (bovine, UniProt P21793 31-360, carries chondroitin sulfate A (CSA) glycosaminoglycan chain(s); the filing attributes the binding of VAR2CSA to this glycan).
T1 construct: also called chondroitin sulfate proteoglycan; CSA proteoglycan
In words: quartz crystal microbalance (Attana A100), CSPG coated, 1:1 fit.
As usually defined, the Kd is the concentration at which binding is half-saturated. A low value points to a tighter complex. B1 registered a Kd of 21.8 nM. B2 yielded a Kd of 8 nM.

As for B3, the Kd was determined as 3.5 nM.

The molecule B4 showed a Kd of 14.6 nM. On to B5, for which binding was characterised by a dissociation constant (Kd) of 7.6 nM.

In turn, B6 registered a Kd of 18.3 nM.

B7 came in with a Kd of 29.5 nM. Under B8 stands 5.7 nM.

The record behind these values is patent US20170016905A1 (VAR2 PHARMACEUTICALS, published 2017).
